In patent publication US20180335433A1, “COMPOSITIONS TARGETING PKC-THETA AND USES AND METHODS OF TREATING PKC-THETA PATHOLOGIES, ADVERSE IMMUNE RESPONSES AND DISEASES” (La Jolla Institute for Allergy and Immunology, priority 2011, published 2018):

Target: CD28, endogenous in primary mouse CD4+ T cells (mouse) (UniProt P31041)
Assay: cell-based or functional assay

Sequence of CD28, endogenous in primary mouse CD4+ T cells (mouse) (P31041 20-218): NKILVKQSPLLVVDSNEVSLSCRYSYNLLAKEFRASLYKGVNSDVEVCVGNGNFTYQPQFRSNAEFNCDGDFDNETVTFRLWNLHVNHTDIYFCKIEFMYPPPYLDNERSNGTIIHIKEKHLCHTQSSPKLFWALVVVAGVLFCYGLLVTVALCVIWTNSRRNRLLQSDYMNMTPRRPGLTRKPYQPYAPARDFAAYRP

- Treg (FoxP3+) differentiation: 4 fold
- inhibition of Th2 differentiation: 75%
- inhibition of Th17 differentiation: 75%
Substance: Myc-tagged PKCθ V3 domain (aa 282-379 of human PKCθ, N-terminal Myc tag) (from UniProt Q04759 282-379)
